Biological target: Bh-RNase HC (RNase HI catalytic domain, D132N) (Bacillus halodurans (genomic DNA from …, UniProt Q9KEI9 58-196, D132N))
Assay: X-ray crystallography

B1: Dickerson-Drew dodecamer (DDD) (dsDNA)
DNA 1: CGCGAATTCGCG
DNA 2: CGCGAATTCGCG
B1: binds.

— PMC3689302
